{"source": "patent US20070196883A1", "about": "“ENZYME” (UNIVERSITY OF DUNDEE, priority 1999, published 2007)", "key": {"[1]": {"target": "T1, endogenous PDK1 associated with GST-PIF (Homo sapiens, UniProt O15530)", "T1 construct": "endogenous in cells; host or cells: 293 cells transfected with pEBG2T GST-PIF; endogenous PDK1 co-purified on glutathione-Sepharose", "T1 sequence (Q16513 908-984 partner limits assumed, one chain of several)": "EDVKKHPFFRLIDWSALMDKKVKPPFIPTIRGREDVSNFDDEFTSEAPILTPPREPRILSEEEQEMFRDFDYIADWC", "experiment": "Dissociation of endogenous PDK1 from purified GST-PIF by peptide", "format": "binding", "settings": "peptide 100 μM, GST-PIF purified from 293 cells", "excerpt": "In contrast, a mutant peptide in which the residue corresponding to Asp978 was changed to Ala (termed “D978A-Region B peptide”) interacted with PDK1>fold 10-less strongly (FIG. 13)."}, "His-PDK1": {"target": "T2, His-PDK1 (Homo sapiens, UniProt O15530)", "T2 construct": "made in house; host or cells: Sf21 insect cells (baculovirus, pFASTBAC HTb)", "T2 sequence (O15530 1-556)": "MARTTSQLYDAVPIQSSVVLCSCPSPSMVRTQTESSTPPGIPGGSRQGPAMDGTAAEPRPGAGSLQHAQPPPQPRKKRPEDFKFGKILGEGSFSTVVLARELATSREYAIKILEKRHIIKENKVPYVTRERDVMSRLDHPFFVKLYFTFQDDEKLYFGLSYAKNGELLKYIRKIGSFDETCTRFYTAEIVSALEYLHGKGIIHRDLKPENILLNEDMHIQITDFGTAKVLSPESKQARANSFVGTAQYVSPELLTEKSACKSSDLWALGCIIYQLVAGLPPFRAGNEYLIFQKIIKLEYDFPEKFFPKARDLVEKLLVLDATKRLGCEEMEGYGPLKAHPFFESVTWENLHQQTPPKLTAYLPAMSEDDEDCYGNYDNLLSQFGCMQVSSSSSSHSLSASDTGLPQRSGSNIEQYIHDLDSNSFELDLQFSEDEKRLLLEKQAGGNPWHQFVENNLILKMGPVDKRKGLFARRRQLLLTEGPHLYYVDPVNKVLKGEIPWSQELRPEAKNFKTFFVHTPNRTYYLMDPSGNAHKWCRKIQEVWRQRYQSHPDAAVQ", "experiment": "Conversion of His-PDK1 into a Ser473 PKBα kinase by synthetic peptide (P-Ser473 immunoblot)", "format": "biochemical", "settings": "peptide at 20 µM, 3-phosphoinositide vesicles, MgATP", "method": "FIG. 6. Conversion of PDK1 into an enzyme that can phosphorylate both Thr308 and Ser473 of PKB by addition of a synthetic peptide. […] After allowing to stand for 1 h at 4° C. GST-PKBα, MgATP and the indicated phospholipid vesicles containing 100 μM PtdCho, 100 μM PtdSer, and either 10 μM sn-1-stearoyl-2-arachidonoyl-D-PtdIns(3,4,5)P3 (1,2-SAD-PtdIns(3,4,5)P3), or sn-1,2 di-palmitoyl-D-PtdIns(3,4,5)P3 (C16-PtdIns(3,4,5)P3) or sn-1,2 di-palmitoyl-D-PtdIns(3,4)P2 (C16-PtdIns(3,4)P2) were added. After 1 h at 30° C., the reactions were terminated by making the solutions 1% in SDS, the samples were subjected to SDS/polyacylamide gel electrophoresis and immunoblotted using P-Ser473 antibody. Identical results were obtained in 2 separate experiments. […]\nPhosphorylation of GST-PKBα by incubation with GST-PIF. In experiments in which the phosphorylation of PKBα was determined using the phospho-specific Ser473 PKBα antibodies, the incubations were identical to the Stage 1 described above except that the reactions were terminated by the addition of 1% (by mass) SDS and immunoblotting is carried out as described below. In experiments in which the sites of phosphorylation on PKBα are determined the incubations were identical to the Stage 1 described above except [γ^32P] […]"}}}
{"substance": "D978A-Region B peptide: mutant peptide in which the residue corresponding to Asp978 was changed to Ala (REPRILSEEEQEMFRDFAYIADWC)", "values": [{"measurement": "dissociation of the endogenous PDK1 from GST-PIF", "setting": "[1]", "value": "incapable of inducing the dissociation"}, {"measurement": "inducing His-PDK1 to phosphorylate PKBα at Ser473", "setting": "His-PDK1", "value": "far less effective"}]}
